Laboratory results from patent US20220064224A1 (NOVOBIND LIVESTOCK THERAPEUTICS, published 2022).

These binders were tested against Canine Parvovirus Type 2 (CPV2) (Canine parvovirus type 2) (assay: cell-based or functional assay).

Binder	Invasion reduced by >50% at 5 µM NBX [%]
NBX0417 (VHH) VHH: QVQLQESGGGLVQPGGSLRLSCAASGSIFSINVMAWYRQAPGKEREYVASITRGGGDYYANSVKGRFTISRDNAKNAVYLQMNSLKPEDTAVYECNAQISQTISGDYRNYWGQGTQVTVSS	≤ 50
NBX0426 (VHH) VHH: QVQLQESGGGLVQPGGSLRLSCAASGIGDRPYVMAWHRQAPGKQRELVATITRDGYTNYADTVKGRFVVSRDNAQNTVYLQMNYLKPADTAVYYCRAYNAYLNLGYWGQGTQVTVST	> 50
NBX0430 (VHH) VHH: QVQLQQSGGGLVQAGGSLRLSCAASGLTFGSPAMAWYRQAPGKEREWVATISRGGSTYYADSVKGRFTISRDNAKNTSYLQMNSLKPEETAVYYCAAGLSSMRYDYWGQGTQVTVSS	≤ 50
NBX0415 (VHH) VHH: QVQLQESGGGLVQAGGSLRLSCAASGRTFSSYAMGWFRQAPGKEREYVAAINRFGGTYYADFVKGRFTISRDNAKNTVYLQMNSLKPEDTAVYYCAASRILGLTTAREDYNYWGQGTQVTVSS	≤ 50
NBX0431 (VHH) VHH: QVQLQQSGGGLVQAGGSLRLSCAASGRTFSSYAMGWFRQAPGKEREYVAGINRFGGTYYADFVKGRFTISRDNAKNTVYLQMNSLKPEDTAVYYCAASRILGLSTAREDYNYWGQGTQVTVSS	≤ 50
NBX0429 (VHH) VHH: QVQLQQSGGGLVQAGGSLRLSCAASGRTFSSYAMGWFRQAPGKEREYVAAINRFGGTYYADFVKGRFTISRDNAKNTVYLQMNSLKPEDTAVYYCAASGILGLSTAREDYNYWGQGTQVTVSS	≤ 50
NBX0412 (VHH) VHH: QVQLQESGGGLVQAGGSLRLSCAVSGRTFSSYAMGWFRQAPGKEREYVAAINRFSGTYYADFVKGRFTISRDNAKNTVYLQMNSLKPEDTAVYYCAASRILGLSTAREDYNYWGQGTQVTVSS	≤ 50
NBX0411 (VHH) VHH: QVQLQESGGGLVQPGGSLRLSCAVSGLAFGRVAMAWYRQAPGKERELVARISSGGYTNYADSAKGRFTISRDNVKNLVYLQMNSLKFDDTAVYYCNSGWSGDYWGKGTLVTVSS	> 50
NBX0421 (VHH) VHH: QVQLQQSGGGLVQPGGSLRLSCAVSGLAFGRYAMAWYRQAPGKERELVARISNGGYTNYADSAKGRFTISRDNVKNTVYLEMNSLKFDDTAVYYCNSGWSGNYWGKGTLVTVSS	> 50
NBX0414 (VHH) VHH: QVQLQESGGGLVQAGGSLRLSCRASGRTFSSSSMGWFRQAPGKERDFVAAISWDGASTRYADSVKGRFTISRDNAKNTVYLQMNSLKPEDTAVYYCAASTMDFIVLLTKWYPYWGQGTQVTVSS	> 50
NBX0416 (VHH) VHH: QVQLQESGGGLVQAGGSLRLSCAASGRTFSSSSMGWFRQAPGKERDFVAAINWSGDSTRYADSVKGRFTISRDNAKSTVYLQMNSLKPEDTAVYYCAASTMDFIVLLTKWYPYWGQGTQVTVSS	≤ 50
NBX0428 (VHH) VHH: QVQLQESGGGLVQAGGSLRLSCAASGSTSSINHIAWYRQAPGKQREWVATITSGGGSTYYTNSVKGRFTISRDNAKNTVYLQMNNLKPEDTAVYYCKANQAAGNKDYWGQGTQVTVSS	> 50
